For assay [1], the target named is T1, human FXII (human, UniProt P00748 20-615).
T1 construct: Bought protein; also called factor XII; natural human FXII
T1 sequence (looked up): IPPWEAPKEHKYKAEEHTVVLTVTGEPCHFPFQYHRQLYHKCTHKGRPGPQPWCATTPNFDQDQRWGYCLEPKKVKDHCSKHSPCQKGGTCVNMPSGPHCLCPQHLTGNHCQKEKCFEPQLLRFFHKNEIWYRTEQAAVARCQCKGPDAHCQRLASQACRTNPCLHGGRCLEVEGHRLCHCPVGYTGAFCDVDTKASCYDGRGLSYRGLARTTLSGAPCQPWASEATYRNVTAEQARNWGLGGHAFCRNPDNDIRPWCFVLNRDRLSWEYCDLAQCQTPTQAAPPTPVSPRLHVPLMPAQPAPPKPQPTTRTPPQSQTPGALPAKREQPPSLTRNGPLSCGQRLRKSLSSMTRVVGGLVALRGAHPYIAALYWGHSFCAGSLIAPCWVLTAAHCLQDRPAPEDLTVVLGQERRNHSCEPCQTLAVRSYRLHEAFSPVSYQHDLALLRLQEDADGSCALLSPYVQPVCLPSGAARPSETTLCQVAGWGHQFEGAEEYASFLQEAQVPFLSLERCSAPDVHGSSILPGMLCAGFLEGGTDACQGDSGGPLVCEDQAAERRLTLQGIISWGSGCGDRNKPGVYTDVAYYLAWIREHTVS
Briefly: ELISA, plate coated with human FXII at 1 ug/mL, nanobody dilutions, anti-6xHis-HRP. On the procedure:
The titer detection method in Example 1 was as follows: An ELISA plate was coated with human FXII at a protein concentration of 1 μg/mL overnight at 4° C.; then the ELISA plate was washed with PBST buffer and blocked with 5% skimmed milk powder at room temperature for 2 h; the ELISA plate was washed with PBST buffer (which was prepared with 1 L of PBS and 500 μL of Tween 20), then nanobodies at different dilutions were added, and the ELISA plate was incubated for 2 h at room temperature; the ELISA plate was washed with PBST buffer, then an […] (Abcam) was added, and the ELISA plate was incubated for 1 h at room temperature in the dark; the ELISA plate was washed with PBST buffer, a tetramethylbenzidine (TMB) (R&D Systems) substrate solution was added, and a chromogenic reaction was conducted for 5 min to 10 min; and a stop solution (sulfuric acid with a concentration of 2 M) was added, and an OD value of each well was determined at 450 nm by a microplate reader.
(In an ELISA, binding on a coated surface is turned into a signal by an enzyme label.)

The target of assay [2] is T2, biotinylated FXII protein (UniProt P00748 20-615, biotinylated (sites not given)).
T2 sequence (looked up): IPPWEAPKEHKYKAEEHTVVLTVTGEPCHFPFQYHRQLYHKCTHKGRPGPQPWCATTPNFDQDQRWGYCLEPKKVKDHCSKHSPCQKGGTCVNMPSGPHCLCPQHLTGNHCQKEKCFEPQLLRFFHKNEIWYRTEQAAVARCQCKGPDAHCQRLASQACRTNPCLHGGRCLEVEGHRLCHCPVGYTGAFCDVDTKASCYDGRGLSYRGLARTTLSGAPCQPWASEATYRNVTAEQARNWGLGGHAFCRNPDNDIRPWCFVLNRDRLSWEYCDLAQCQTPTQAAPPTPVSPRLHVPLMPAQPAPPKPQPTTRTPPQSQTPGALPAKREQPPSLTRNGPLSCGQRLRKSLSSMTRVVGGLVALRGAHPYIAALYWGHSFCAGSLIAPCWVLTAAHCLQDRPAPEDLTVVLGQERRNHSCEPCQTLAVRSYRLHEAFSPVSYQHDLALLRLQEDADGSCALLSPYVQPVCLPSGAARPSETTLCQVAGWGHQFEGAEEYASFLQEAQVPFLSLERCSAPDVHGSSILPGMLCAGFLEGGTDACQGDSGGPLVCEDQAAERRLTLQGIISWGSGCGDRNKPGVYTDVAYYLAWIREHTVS
In words: BLI (Fortebio Octet), biotinylated FXII loaded on the biosensor, N4-38 at 50, 20 and 10 ug/mL, 37 C. How it is done: (1) A Fortebio Octet special solution M (a PBST solution including BSA with a mass fraction of 0.5%) was prepared, filtered through a 0.22 μm filter membrane, and stored at 4° C. for later use; (2) a biotinylated FXII protein was diluted to 10 μg/mL, a nanobody N4-38 was diluted to 50 μg/mL, 20 μg/mL, and 10 μg/mL, and resulting samples each were added; (3) a biosensor was placed in a corresponding clean well of a spare box, and […] of the Fortebio Octet special solution M was added to each well corresponding to the biosensor; (4) a program was set as follows: first stage Baseline: 60 s, second stage Loading: 200 s, third stage Baseline 2: 100 s, fourth stage Association: 300 s, fourth stage Dissociation: 300 s, and reaction temperature during the whole process: 37° C.; and (5) after a reaction was completed, data analysis was conducted by software.

B1: nanobody N4-44 (VHH)
VHH: QVQLVESGGGLVQAGGSLRLSCAASGSDFSINAMGWYRQAPGKERELVATISSGGSTYYADSVKGRFTISRDNAKNTLYLHMNTLKPEDTAMYYCAILKGATPGYWGQGTQVTVSS
notes: not shown: 6xHis tag from vector PET26b
B1: the titer in assay [1] was determined as 220.

B2: nanobody N4-38 (VHH)
VHH: QVQLVESGGGLVQAGGSLRLSCAASGRTGNAYRMGWFRQAPGKEREFVAAISWNGDSTNYADSVKGRFTISRDNAKNTVYLQMNSLKPEDTAVYYCAVVKGIGVPPNMYDYWGQGTQVTVSS
notes: Alpaca nanobody expressed in E. coli from PET26b; also called N38; N4-38 antibody
In assay [1], B2 returned a titer of 220. In addition, the Kd in assay [2] was 3.07 nM.

B3: nanobody A5-8 (VHH)
VHH: QVQLVESGGGLAQVGGSLRLSCAASGSTFSFKSMGWYREAPGNQRELVAAISSKGIMTNSDSVKGRFTISRDNAKNTVDLHLNNLKPEDTAVYYCNVVEVGVGGLVNVYWGQGTQVTVSS
notes: as for B1
In turn, B3 showed a titer in assay [1] of 220.

One may read the Kd as a measure of binding affinity in units of concentration. Low values mean a tighter complex, high ones a looser complex.
